Literature values, collected in article PMC4888498.

Assays:
[1] = target: T1, Ss-LrpB Sulfolobus solfataricus (Saccharolobus solfataricus P2) (UniProt Q7LX67); assay: EMSA
T1 sequence: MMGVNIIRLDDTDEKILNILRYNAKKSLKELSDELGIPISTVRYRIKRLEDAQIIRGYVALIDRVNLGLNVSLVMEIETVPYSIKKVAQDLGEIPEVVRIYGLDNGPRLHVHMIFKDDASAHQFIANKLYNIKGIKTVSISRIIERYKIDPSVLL

[2] = target: T2, TvFL3 Thermoplasma volcanium (Thermoplasma volcanium GSS1) (UniProt Q979L0); assay: EMSA
T2 sequence: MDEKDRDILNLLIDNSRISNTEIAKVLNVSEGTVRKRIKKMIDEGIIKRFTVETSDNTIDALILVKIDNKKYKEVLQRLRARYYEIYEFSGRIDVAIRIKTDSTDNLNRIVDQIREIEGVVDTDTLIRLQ

GAAATTAATACGACTCACTATGGGGAGAGAGACTTGCAAAATTTGCAACTGTGTGTCGCTAGTTATTGCTCAGCGGTGG (double strand) [19468044-FFRP-7]
Ka [1]: 3.5e+07 M⁻¹

GAAATTAATACGACTCACTATGGGGAGAGAGACGTTCGAAATTCGAACCTGTGTGTCGCTAGTTATTGCTCAGCGGTGG (double strand) [19468044-FFRP-3]
Ka [2]: 8.2e+06 M⁻¹

GAAATTAATACGACTCACTATGGGGAGAGAGACGTACGAAATTCGTACCTGTGTGTCGCTAGTTATTGCTCAGCGGTGG (double strand) [19468044-FFRP-1]
Ka [2]: 1.28e+07 M⁻¹

GAAATTAATACGACTCACTATGGGGAGAGAGACGGTCGAAATTCGACCCTGTGTGTCGCTAGTTATTGCTCAGCGGTGG (double strand) [19468044-FFRP-4]
Ka [2]: 7.3e+06 M⁻¹

GAAATTAATACGACTCACTATGGGGAGAGAGACGGACGAAATTCGTCCCTGTGTGTCGCTAGTTATTGCTCAGCGGTGG (double strand) [19468044-FFRP-2]
Ka [2]: 9e+06 M⁻¹
